Experimental findings from patent publication US20120114647A1 (GlaxoSmithKline, published 2012) are described below.

Where a chain is given by its changes, count along the chain named.

Usually Kd stands for a measure of binding affinity in units of concentration.

T1: Cynomolgus monkey serum albumin (Cynomolgus monkey), A2V9Z4
T1 chain: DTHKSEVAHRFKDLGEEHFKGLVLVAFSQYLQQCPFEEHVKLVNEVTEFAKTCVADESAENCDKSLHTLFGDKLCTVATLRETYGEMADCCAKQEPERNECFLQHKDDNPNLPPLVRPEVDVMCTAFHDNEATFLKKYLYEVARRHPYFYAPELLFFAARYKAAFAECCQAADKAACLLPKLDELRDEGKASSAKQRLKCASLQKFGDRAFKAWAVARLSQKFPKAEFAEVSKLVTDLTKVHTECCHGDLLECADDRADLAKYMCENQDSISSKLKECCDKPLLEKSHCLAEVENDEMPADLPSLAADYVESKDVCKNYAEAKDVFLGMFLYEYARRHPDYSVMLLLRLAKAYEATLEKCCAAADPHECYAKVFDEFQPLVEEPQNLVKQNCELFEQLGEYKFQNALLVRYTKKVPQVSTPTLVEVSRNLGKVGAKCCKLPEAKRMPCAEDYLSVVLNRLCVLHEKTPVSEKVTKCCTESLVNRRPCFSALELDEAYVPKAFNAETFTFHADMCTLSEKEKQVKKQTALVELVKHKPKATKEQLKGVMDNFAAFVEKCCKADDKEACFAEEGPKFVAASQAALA

B1: DOM7r-31-14 (VHH)
VHH: EVQLLESGGGLVQPGGSLRLSCTASGFTFRHYRMGWVRQAPGKGLEWVSWIRPDGTFTYYADSVKGRFTISRDNSKNTLYLQMNSLRAEDTAVYYCAKSYMADRFDYWGQGTLVTVSS
B2: DOM7h-98-4 (VHH)
VHH: EVQLLESGGGLVQPGGSLRLSCAASGFTFGNYAMAWVRQAPGKGLEWVSSIDMVGIKTYYADSVKGRFTNSRDNSKNTLYLQMNSLRAEDTAVYYCARGFRIFDYWGQGTLVTVSS
B3: DOM7r-201 (VHH)
VHH: EVQLLESGGGLVQPGGSLRLSCAASGFTFNHYTMGWVRQAPGKGLEWVSLIHPSGTVIYYADSVKGRFTISRDNSKNTLYLQMNSLRAEDTAVYYCAKWSSRAFDYWGQGTLVTVSS
B4: DOM7r-36-8 (VHH)
VHH: B3 VHH with K98R
B5: DOM7r-36-2 (VHH)
VHH: B3 VHH with L45R, I58T
B6: DOM7r-92-4 (VHH)
VHH: EVQLLESGGGLVQPGGSLRLSCAASGFTFDTSSMLWVRQAPGKGLEWVSVIHQSGTPTYYADSVKGRFTISRDNSKNTLYLQMNSLRAEDTAVYYCAKFPSTHGKFDYWGQGTLVTVSS
B7: DOM7r-31 (VHH)
VHH: B1 VHH with A102G
notes: human VH dAb (AlbudAb)
B8: DOM7h-112 (VHH)
VHH: EVQLLESGGGLVQPGGSLRLSCAASGFTFGGYVMGWVRQAPGKGLEWVSAINRFGSSTYYADSVKGRFTISRDNSKNTLYLQMNSLRAEDTAVYYCAKGSLRHFDYWGQGTLVTVSS
notes: human VH immunoglobulin single variable domain (dAb, AlbudAb), not camelid
B9: DOM7h-98 (VHH)
VHH: B2 VHH with N70I, R98K
notes: human VH dAb (AlbudAb)
B10: DOM7r-38 (VHH)
VHH: EVQLLESGGGLVQPGGSLRLSCAASGFTFDNNAMGWVRQAPGKGLEWVSTISANGNATYYADSVKGRFTISRDNSKDTLYLQMNSLRAEDTAVYYCAKGFRRFDYWGQGTLVTVSS
notes: human VH dAb (AlbudAb)
B11: DOM7r-36 (VHH)
VHH: B3 VHH with I58T
notes: human VH dAb (AlbudAb)
B12: DOM7r-35 (VHH)
VHH: EVQLLESGGGLVQPGGSLRLSCAASGFTFSLYRMVWVRQAPGKGLEWVSMISQFGNQTYYADSVKGRFTISRDNSKNTLYLQMNSLRAEDTAVYYCAKVRSWDQTGGRRTFDYWGQGTLVTVSS
notes: human VH dAb (AlbudAb); propensity to dimerise by MALLS
B13: DOM7r-29 (VHH)
VHH: EVQLLESGGGLVQPGGSLRLSCAASGFTFKDYDMTWVRQAPGKGLEWVSMISSSGLWTYYADSVKGRFTISRDNSKNTLYLQMNSLRAEDTAVYYCAKGFRLFPRTFDYWGQGTLVTVSS
notes: human VH dAb (AlbudAb)

For the first assay, the target named is T2, mouse serum albumin (mouse, UniProt P07724 25-608).
T2 construct: also called MSA
Nature of the assay: SPR (BIAcore), eight-point dilution kinetics.
Details: not given
(In general: In SPR one partner is held on a chip, and binding of the other changes the refractive index at the surface.)
In turn, B1 displayed a Kd of 6 nM.

On to B2, for which the Kd was determined as 810 nM.

Turning to B3, the Kd turned out to be 280 nM.

With B4, binding was put at a Kd of 520 nM.

For B5, binding was characterised by a dissociation constant (Kd) of 520 nM.

B6 had a Kd of 110 nM.

Another assay addresses T3, rat serum albumin (rat, UniProt P02770 25-608).
T3 construct: also called RSA
Nature of the assay: SPR (BIAcore), eight-point dilution kinetics.
Details: not given
B1 yielded a Kd of 46 nM.

In turn, B2 displayed a Kd of 580 nM.

B3 yielded a Kd of 240 nM.

B4 returned a Kd of 210 nM.

On to B5, for which binding was characterised by a dissociation constant (Kd) of 190 nM.

With B6, binding was put at a Kd of 260 nM.

In the next assay the target is T4, human serum albumin (human, UniProt P02768 25-609).
T4 construct: also called HSA; human SA
Nature of the assay: SPR (BIAcore), eight-point dilution kinetics.
Details: not given
In the case of B1, binding was characterised by a dissociation constant (Kd) of 58 nM.

The molecule B2 displayed an equilibrium dissociation constant (Kd) of 2000 nM.

For the molecule B3, the Kd turned out to be 60 nM.

B4 had a Kd of 67 nM.

Regarding B5, the affinity, expressed as Kd, was 150 nM.

B6: the affinity, expressed as Kd, was 130 nM.

Another assay concerns the target T5, Cynomolgus monkey serum albumin (Cynomolgus monkey, UniProt A2V9Z4 25-608).
T5 construct: also called CSA; cyno serum albumin
Nature of the assay: SPR (BIAcore), eight-point dilution kinetics.
Details: not given
As to B2, the Kd came out at 3600 nM.

B3 registered a Kd of 58 nM.

In the case of B4, binding was characterised by a dissociation constant (Kd) of 92 nM.

In the case of B5, binding was characterised by a dissociation constant (Kd) of 180 nM.

Molecule B6 displayed a Kd of 98 nM.

The target of a further assay is T1, Cynomolgus monkey serum albumin …. Nature of the assay: SPR (BIAcore), eight-point dilution kinetics. The settings on record: remark: other sources report otherwise.
With B1, the Kd was found to be 31000 nM.

The target of a further assay is T2, mouse serum albumin. Nature of the assay: SPR (Biacore), cross-reactivity.
Details: not given
Regarding B7, the binding result was “binds”.

Regarding B8, the binding result is “binds”.

Regarding B9, the binding result is recorded as “binds”.

With B10, the binding result is on record as “binds”.

For B11, the binding result is “binds”.

Take B12: the binding result is reported as “binds”.

Turning to B13, the binding result is reported as “binds”.

Another assay has as its target T3, rat serum albumin. Nature of the assay: SPR (Biacore), cross-reactivity.
Details: not given
For the molecule B7, the binding result was “binds”.

B8: the binding result is listed as “binds”.

For B9, the binding result is “binds”.

For B10, the binding result was “binds”.

As to B11, the binding result is given as “binds”.

With B12, the binding result was “binds”.

For B13, the binding result is recorded as “binds”.

The target of a further assay is T4, human serum albumin. Nature of the assay: SPR (Biacore), cross-reactivity.
Details: not given
Take B7: the binding result is “binds”.

As to B9, the binding result is listed as “binds”.

With B10, the binding result is “binds”.

On to B11, for which the binding result is “binds”.

Turning to B12, the binding result is given as “binds”.

As to B13, the binding result was “binds”.

A further assay has as its target T5, Cynomolgus monkey serum albumin. Nature of the assay: SPR (Biacore), cross-reactivity.
Details: not given
On to B7, for which the binding result is on record as “binds”.

On to B8, for which the binding result is “binds”.

As for B9, the binding result is given as “binds”.

As to B10, the binding result was “binds”.

On to B11, for which the binding result is reported as “binds”.

B12: the binding result is “binds”.

As to B13, the binding result was “binds”.

Another assay concerns the target T4, human serum albumin. Nature of the assay: SPR (Biacore), cross-reactivity against four serum albumins.
Details: not given
Regarding B8, the binding result was “no binding”.
